Reference: paper PMC3245798

Biological target: soluble H ectodomain (sH, amino acids 60-617) of measles virus (measles virus) (UniProt P08362)
Assay: SPR

Chain of UniProt P08362 (P08362 60-617 limits assumed): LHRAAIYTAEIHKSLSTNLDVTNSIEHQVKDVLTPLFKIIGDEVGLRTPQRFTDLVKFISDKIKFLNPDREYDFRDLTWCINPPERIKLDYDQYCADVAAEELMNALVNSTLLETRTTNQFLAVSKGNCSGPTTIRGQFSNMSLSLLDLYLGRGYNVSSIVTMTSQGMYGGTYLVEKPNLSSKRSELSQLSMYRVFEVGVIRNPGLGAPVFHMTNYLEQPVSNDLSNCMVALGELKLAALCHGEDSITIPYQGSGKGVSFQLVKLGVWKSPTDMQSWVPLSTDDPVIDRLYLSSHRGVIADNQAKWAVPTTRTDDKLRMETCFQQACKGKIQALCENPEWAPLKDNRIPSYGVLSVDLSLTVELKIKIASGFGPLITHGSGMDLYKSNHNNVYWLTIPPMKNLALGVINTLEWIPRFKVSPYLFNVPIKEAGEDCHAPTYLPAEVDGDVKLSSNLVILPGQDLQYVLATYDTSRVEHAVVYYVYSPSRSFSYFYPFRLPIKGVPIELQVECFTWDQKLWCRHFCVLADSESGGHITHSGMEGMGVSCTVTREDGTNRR

Work on “soluble nectin-4 ectodomain fused to human IgG1 Fc domain (N4VCC-Fc) (from UniProt Q96NY8 32-349) (Fc fusion)” yielded a kon relative to that of SLAM and H of 5 fold.
